“Also recorded” adds a separate entry of the source.
Key:
[1] = target: T1, I-A^k (Mus musculus, UniProt P01910+P06343); assay: Gel filtration binding of 125I-labeled peptide to purified Ia (I-A^k)
T1 construct: endogenous in cells
Description: (§1) The peptide P12-26 was modified by the addition of a tyrosine residue to the N-terminus to serve as an acceptor for the ^125 I.
(§2) Ia-molecules were purifed from Nonidet P-40 (NP-40) lysates of A20 (H2^d) or AKTB-1b (H2^k) cells by affinity chromatography using the following monoclonal antibodies: MK-D6 (I-A^d -specific), 10-3-6 (I-A^k -specific) specific) or 14-4-4 (I-E^d/k -specific) coupled to Sepharose 4B beads (Pharmacia Fine Chemicals, Sweden).
(§3) A gel filtration assay was used for determining the degree of association between immunogenic peptides and Ia. The assay is described in: Buus, S. et al., Proceeding of the National Academy of Sciences, U.S.A. (1986) 83:3968, the teaching of which is incorporated herein by reference. Briefly, 40 μmole of purified Ia in 1 percent NP-40/PBS was mixed with 0.2 μmole of ^125 I-labeled peptide (approximately 200,000 cpm for each experiment) and incubated for 48 hours at room temperature to allow for formation of the Ia-peptide complex. The Ia-peptide complexes were separated from free peptide by gel filtration and the percentage of peptide bound to Ia was calculated as the ratio of the ^125 I-labeled peptide in the void volume to the total ^125 I-labeled peptide recovered.

[2] = tested on: T-cell hybridoma DO-11.10; type: cell-based
[3] = target: T2, I-E^d (Mus musculus, UniProt P01904+P01915); assay: Inhibition of binding of 125I-labeled Myoglobin (P132-153) to I-E^d; details: 125I Myoglobin (P132-153) bound to I-E^d; read-out: Concentration (μM) of P12-26 Required for 50 percent Inhibition
T2 construct: endogenous in cells
T2 sequence (P01904 26-255): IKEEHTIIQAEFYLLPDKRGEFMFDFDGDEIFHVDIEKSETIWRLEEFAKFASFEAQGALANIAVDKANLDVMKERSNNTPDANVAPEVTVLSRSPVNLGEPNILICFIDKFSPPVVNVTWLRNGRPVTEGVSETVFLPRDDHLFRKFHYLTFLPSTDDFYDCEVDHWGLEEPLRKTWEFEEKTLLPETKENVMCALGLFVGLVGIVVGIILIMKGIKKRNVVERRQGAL
T2 sequence (P01915 27-264 limits assumed): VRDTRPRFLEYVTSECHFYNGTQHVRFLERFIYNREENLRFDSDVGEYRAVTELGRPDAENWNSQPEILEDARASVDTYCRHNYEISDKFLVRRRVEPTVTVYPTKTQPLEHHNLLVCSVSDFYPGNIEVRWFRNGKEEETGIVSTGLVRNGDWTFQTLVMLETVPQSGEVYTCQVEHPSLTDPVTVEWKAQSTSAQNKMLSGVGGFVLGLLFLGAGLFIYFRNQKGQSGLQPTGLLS
Description: as §2
as §3, with “Briefly, 40 μmole of purified Ia in 1 percent NP-40/PBS was mixed with 0.2 μmole of ^125 I-labeled peptide (approximately 200,000 cpm for each experiment) and incubated for 48 hours at room temperature to allow for formation of the Ia-peptide complex.” left out
For the inhibition assay a dose-range of unlabeled cI P12-26 peptide was added to the incubation mixture of Ia and ^125 I-labeled peptide (600, 120, 24, ad 48 μM). The degree of association between Ia and labeled peptide was determined by gel filtration as described in Table 1. […] The concentration of inhibitory peptide required to obtain a 50 percent inhibition of binding was calculated. […]

[4] = tested on: I-E^d; assay: Restriction of peptide-specific T-cell hybrids assayed on L cells expressing I-A^d or I-E^d; type: cell-based, Balb/c mouse; details: P12-26: of more than 300 hybrids; myoglobin (P135-147): of 80 hybrids
Description: That is, they could be stimulated by antigen in the presence of L cells expressing I-A^d, but could not be shown to be stimulated by antigen in the presence of L cells expressing I-E^d.
The proliferation of these same cultures was not inhibited (75,000 cpm) by a monoclonal antibody, 34-1-4S, which is specific for I-E^d and which inhibits the stimulation of a hemocyanin specific, I-E^d resticted T-cell hybridoma.

[5] = target: T2, I-E^d; assay: Gel filtration binding of 125I-labeled peptide to purified Ia (I-E^d)
Description: as §1, §2, §3

T1 sequence (P01910 24-256): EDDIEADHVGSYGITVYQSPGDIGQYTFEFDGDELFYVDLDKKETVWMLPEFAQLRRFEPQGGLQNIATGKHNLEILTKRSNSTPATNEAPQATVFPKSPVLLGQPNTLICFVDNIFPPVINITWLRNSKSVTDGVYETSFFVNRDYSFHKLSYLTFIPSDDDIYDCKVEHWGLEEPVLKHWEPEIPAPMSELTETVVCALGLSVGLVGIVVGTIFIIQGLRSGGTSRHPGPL
T1 sequence (P06343 28-263): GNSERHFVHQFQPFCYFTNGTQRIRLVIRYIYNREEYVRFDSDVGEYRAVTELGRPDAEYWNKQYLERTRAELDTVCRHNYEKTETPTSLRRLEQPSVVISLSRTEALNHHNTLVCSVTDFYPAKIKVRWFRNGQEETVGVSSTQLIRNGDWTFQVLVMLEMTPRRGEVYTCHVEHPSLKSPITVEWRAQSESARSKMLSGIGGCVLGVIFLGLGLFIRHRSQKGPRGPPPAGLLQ

## P12-26: derived from the cI protein of bacteriophage lambda (residues 12-26)
[1]
  Binding to the I-A^k molecule (in words): not bound; also recorded: inability of P12-26 to bind
[2]
  Stimulation of DO-11.10: Neither of these peptides can stimulate DO-11.10 on its own
[2]; Ova (P324-336) as stimulator, A20 presenting cells, peptide at 50 μM, 24 hrs
  Inhibition of ovalbumin-specific T-cell activation (DO-11.10): act as inhibitors
[3]
  IC50: 4 µM
[4]
  Number of peptide-specific hybrids restricted by I-E^d: none
[5]
  Binding to the I-E^d molecule (in words): binds most tightly; also recorded: binds best; also recorded: binds exceedingly well

Source: patent US5019384A, “Immunonodulating compositions and their use” (Massachusetts Institute of Technology, priority 1989, dated 1991)
